± gives the standard deviation of the averaged measurements.
Test system: Saccharomyces cerevisiae
Experiment: protein stability index of tFT-peptide fusion (C-terminal peptide) (PSI (0-1 scale)); higher = more stable (slower turnover)
Details: genetic background: wild type; temperature: 30 C
Experimental: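 Multiplexed protein stability (MPS) profiling in S. cerevisiae. Random 12-aa peptides (tFT-X12 library) are fused to the C-terminus of a sfGFP-mCherry tandem fluorescent timer, after mCherry and a GGGS linker. Cells are FACS-sorted into 8 mCherry/sfGFP bins and deep-sequenced. The protein stability index (PSI) is the read-weighted bin average, scaled from 0 (unstable) to 1 (stable). Only peptides with >10 reads are reported; cells were grown at 30 °C in SC-His with glucose.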
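Also: PSI is a weighted mean of sequencing reads over stability bins, variants kept only with over 10 reads, mCherry proximal and sfGFP distal, peptide attached via GGGS linker.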

Sequence	protein stability index
ARRIEGADAERG	0.668 ± 0.048
ARRVILRANGRI	0.668 ± 0.035
ARSALFRCGSIA	0.678 ± 0.02
ARTILGSFILHP	0.662 ± 0.049
ARYTGPTRIRAE	0.672 ± 0.1
ASAWHGLVFPPF	0.779 ± 0.01
ASCQRCGSVLDL	0.697 ± 0.014
ASDMHRTNKPRE	0.671 ± 0.085
ASFWLPSNLLPI	0.7322 ± 0.0013
ASGGWGVGCPGV	0.716 ± 0.041
ASGKRSGPNPCR	0.72 ± 0.022
ASGWWGGAVGLR	0.68375 ± 0.00064
ASKKIDIEKRGT	0.705 ± 0.14
ASLPDHYPGPKI	0.759 ± 0.27
ASPRLPSPLSLT	0.718 ± 0.12
ASRRASLSLRGP	0.73 ± 0.022
ASRRSRLPWLLL	0.629 ± 0.0083
ASRSRFMREQMV	0.567 ± 0.027
ASRWGYSATTVG	0.697 ± 0.026
ASYVFVVEGGGG	0.609 ± 0.018
ATDAWNKNKESS	0.542 ± 0.04
ATHPGCATPDAH	0.704 ± 0.015
ATPAPRGEVLVP	0.6369 ± 0.0034
ATPGALVSHPTL	0.729 ± 0.049
ATPPHLLPAPLA	0.656 ± 0.011
ATSYRPPHFAIP	0.693 ± 0.011

Sequence	protein stability index
ATVARNTDTSSP	0.679 ± 0.017
ATVYFCKVCGGR	0.687 ± 0.019
AVDPGASFPVSV	0.698 ± 0.0086
AVGFFAASVPGF	0.7293 ± 0.0069
AVGMGCLSFFVV	0.553 ± 0.056
AVGMVLEYFTLG	0.671 ± 0.029
AVRCEEKGLLLS	0.674 ± 0.017
AVRVSRFSCGGW	0.717 ± 0.038
AVSCTAWVTALG	0.522 ± 0.012
AVSSGPGSCSNP	0.668 ± 0.013
AVVRGRADCVMV	0.656 ± 0.017
AVVTVVDRVVRE	0.594 ± 0.032
AVVYRGGRGGIS	0.775 ± 0.047
AVWLGVGGRFVG	0.781 ± 0.053
AVWLVVRGVRGR	0.679 ± 0.034
AVYWRRIRRGRA	0.6714 ± 0.0018
AWDGVESGRGLE	0.67797 ± 0.00016
AWFCLGGRRGMV	0.685 ± 0.023
AWGFHDAFGLGC	0.605 ± 0.032
AWGGGSVVFWAV	0.692 ± 0.055
AWGGRVGWPKRR	0.734 ± 0.052
AWGPGCVVRGRE	0.7151 ± 0.0012
AWVCRLDGPVGG	0.634 ± 0.04
AWVLVVLGSSHR	0.586 ± 0.05
AWVVVGEGKGWR	0.717 ± 0.035
AWWWGCSSIGYW	0.787 ± 0.085

Sequence	protein stability index
AYCGGSNKCTTE	0.732 ± 0.026
AYCGLEGFLGLG	0.688 ± 0.051
AYLGFYLLPYSS	0.717 ± 0.13
AYRKQGRGERKG	0.65 ± 0.011
AYRLWQTESKFD	0.699 ± 0.057
CAGSRIYCVSLS	0.641 ± 0.062
CASGKVCVRFCW	0.683 ± 0.033
CAVPTCSRVPIV	0.601 ± 0.078
CCAVLSSMSSFD	0.668 ± 0.053
CCFFPSLRSPSF	0.726 ± 0.011
CCLSISSSLLDL	0.675 ± 0.13
CCLSVSSHLPHS	0.7096 ± 0.00068
CCPHMLLVLTNI	0.509 ± 0.011
CCRDLWVWLVKW	0.619 ± 0.071
CCSLIPRAPSGR	0.687 ± 0.051
CDWQMMKVQERS	0.698 ± 0.021
CECRCECGIGDK	0.632 ± 0.096
CEYRRLVISVFD	0.547 ± 0.028
CFAPRAPIRRFF	0.733 ± 0.032
CFCSLLSPSLFL	0.751 ± 0.091
CFEGPSSRRYFV	0.699 ± 0.083
CFGSRMGVVGFC	0.726 ± 0.065
CFGVSVYIGLGV	0.588 ± 0.011
CFGYRGAPFCGQ	0.669 ± 0.063
CFKPLRLEPGCC	0.665 ± 0.094
CFLCLAYGFFSF	0.571 ± 0.03

Sequence	protein stability index
CFLVLFAHPFVL	0.555 ± 0.007
CFPLSPSCIFLR	0.464 ± 0.077
CFSRCLSLLSSS	0.636 ± 0.021
CGAALCSWEVVV	0.627 ± 0.018
CGCVAVNSFPVL	0.69 ± 0.011
CGGGGVVGAGWG	0.728 ± 0.061
CGGSARAGVVFL	0.699 ± 0.066
CGGWTRRSGDMV	0.678 ± 0.042
CGHAGQTPRTSR	0.718 ± 0.065
CGISTRYHNRES	0.696 ± 0.023
CGLLEGGRCRKE	0.7922 ± 0.0071
CGLVGVALSEGV	0.65 ± 0.086
CGRACWTGEDDV	0.68 ± 0.037
CGRGCTRGVNLG	0.689 ± 0.069
CGSWAGRAWPGR	0.755 ± 0.014
CGVGWSWTWSGW	0.698 ± 0.078
CGVYPQLSGGFG	0.687 ± 0.018
CGWTSPSLVPTC	0.791 ± 0.045
CGYAAGGELLQD	0.705 ± 0.012
CHGCSGFSYAPS	0.669 ± 0.039
CIALLTPPCIIF	0.72 ± 0.065
CIDCGRKDIARL	0.785 ± 0.066
CIPHVVPYSTGK	0.697 ± 0.014
CITLLDILFRPS	0.684 ± 0.019
CKKRSRCGNTIM	0.755 ± 0.15
CKMGNQNIRLYV	0.599 ± 0.033

Sequence	protein stability index
CKPAGEGPTASM	0.678 ± 0.037
CKVRSYDDFVLV	0.6231 ± 0.002
CLAGLGPADFGM	0.674 ± 0.057
CLATVFWHHVKF	0.63 ± 0.058
CLAVPFSFRLVW	0.613 ± 0.041
CLHSKPSPESRT	0.687 ± 0.041
CLISDLRFVNKR	0.69 ± 0.056
CLLIRAQRNALW	0.64 ± 0.036
CLPCSGWLSWPH	0.664 ± 0.0069
CLPLSPPVPHLR	0.738 ± 0.12
CLPPSSIVPFIS	0.59 ± 0.024
CLREYGGRGGWE	0.706 ± 0.028
CLRGFWSQFMRF	0.678 ± 0.032
CLRKKYSNTLLM	0.647 ± 0.028
CLRTVGIAQSSG	0.7019 ± 0.00094
CLSAPFRSLLFL	0.585 ± 0.051
CLSATTFSYVFA	0.576 ± 0.0061
CLTRFFQPYGSL	0.667 ± 0.059
CLTYPSFSLSSS	0.635 ± 0.063
CMRVGGWFLFSL	0.661 ± 0.051
CNFGLHSCALLY	0.723 ± 0.033
CNVGAIVGLVWV	0.6002 ± 0.0019
CPGNGVFYSGRG	0.679 ± 0.014
CPLEYSEVVLVD	0.6268 ± 0.0022
CPLSPLPSSAAP	0.681 ± 0.042
CPPGFPRPSSPH	0.689 ± 0.028

Sequence	protein stability index
CPPTPSPSTLPT	0.663 ± 0.016
CPRPHVLPLAYF	0.646 ± 0.014
CPRSWWELLAID	0.739 ± 0.045
CPSIVCSPTDPM	0.679 ± 0.061
CPSRPPALPPPE	0.66835 ± 0.00049
CPTLTCPRLPSP	0.684 ± 0.11
CPVSWRPLCTVS	0.6177 ± 0.0054
CQHPLRPRCLND	0.6724 ± 0.0048
CRGAGGRTVING	0.665 ± 0.043
CRGRWVAWSMGI	0.7221 ± 0.0019
CRMEARHSVLKS	0.554 ± 0.0087
CRPVPGGLFVVS	0.669 ± 0.064
CRRRWSAPGGSR	0.7176 ± 0.0047
CRSGFEPSPHLG	0.657 ± 0.029
CSAGLSDRGFCE	0.663 ± 0.023
CSCSQYFHLPNV	0.687 ± 0.017
CSGCSGSCSVLA	0.646 ± 0.049
CSLRDRCAFSFG	0.6982 ± 0.0052
CSLSLPAFSAPS	0.669 ± 0.04
CSLVIRRRREVG	0.659 ± 0.044
CSPGVSGVSSVD	0.685 ± 0.026
CSPMFTRQPLPL	0.645 ± 0.027
CSRDNRTSRSIL	0.681 ± 0.032
CSSRDGLLWRFR	0.731 ± 0.088
CSSTGVPGRRHE	0.709 ± 0.013

Reference: the supplement of paper PMC10724198
